Patent US20210380703A1 (RIGEL PHARMACEUTICALS, published 2021)
Positions count from the first letter of the chain named.

B1: 372_C06 (antibody, V domains shown)
VH: EVQLLESGGGLVQPGGSLRLSCAASGFTFSDYSMNWVRQAPGKGLEWVSGINYNGGYTSYADSVKGRFTISRDNSKNTLYLQMNSLRAEDTAVYYCARGANWHDTALDYWGQGTLVTVSS
VL: DIQMTQSPSSLSASVGDRVTITCRASQSIVSYVNWYQQKPGKAPKLLIYAATSRASGVPSRFSGSGSGTDFTLTISSLQPEDFATYYCQQSYSSPLTFGGGTKVEIK
notes: Group III
B2: 373_B07 (antibody, V domains shown)
VH: B1 VH with S30D, D31S
VL: B1 VL with V30L, S31T, L47V, S93E, S94L
notes: Group III
B3: 373_A03 (antibody, V domains shown)
VH: B1 VH with S49A, G50N, S59G
VL: B1 VL with V30L, V33L, L47V, S93D, S94N
notes: Group III
B4: 373_A11 (antibody, V domains shown)
VH: B1 VH with D31N, S33G, S49A, G50N, S59G
VL: B1 VL with V30L, S31T, V33L, S93D, S94L
notes: Group III
B5: 373_H07 (antibody, V domains shown)
VH: B1 VH with D31S, S49A, A106H
VL: B1 VL with S31T, V33L, T52S, R54L, A55Q, S93D
notes: Group III
B6: 374_B05 (antibody, V domains shown)
VH: B1 VH with S30D, D31S, G55S
VL: B1 VL with V33L, A55H, S93E
notes: Group III
B7: 374_B03 (antibody, V domains shown)
VH: B1 VH with S30D, D31S
VL: B1 VL with V30L, S31T, V33L, L47V, S93D
notes: Group III
B8: 373_H03 (antibody, V domains shown)
VH: B1 VH with D31S, G55S, T58K
VL: B1 VL with V30L, V33L, A51T, S93E, S94N
notes: Group III
B9: 372_D03 (antibody, V domains shown)
VH: B1 VH with D31S, S49A, G55S, T58K
VL: B1 VL with V30L, L47V, A51V, A55H, S93D
notes: Group III
B10: 373_F08 (antibody, V domains shown)
VH: B1 VH with D31S
VL: B1 VL with V30L, S31T, V33L, S93D, S94T
notes: Group III
B11: 374_C12 (antibody, V domains shown)
VH: B1 VH with D31S, S49A, T58K
VL: B1 VL with V30L, S31T, V33L, L47V, Y92D, S93N
notes: Group III
B12: 372_G12 (antibody, V domains shown)
VH: B1 VH with S30D, D31S, S49A, S59G, A106H
VL: B1 VL with V30L, S31T, V33L, L47V, A55H, S93D
notes: Group III
B13: 373_A09 (antibody, V domains shown)
VH: B1 VH with S30D, D31S, S49A
VL: B1 VL with V30L, S31T, V33L, R54L, S93D, S94T
notes: Group III
B14: 374_D05 (antibody, V domains shown)
VH: B1 VH with S30D, D31S, G55S, S59G, A106H
VL: B1 VL with V30L, S31T, V33L, S93D, S94T
notes: Group III
B15: 373_A12 (antibody, V domains shown)
VH: B1 VH with D31S, G50S
VL: B1 VL with V30L, S31T, V33L, L47V, S93D, S94T
notes: Group III
B16: 373_C03 (antibody, V domains shown)
VH: B1 VH with D31S, T58K
VL: B1 VL with S31T, V33L, L47V, S93D
notes: Group III
B17: 374_D03 (antibody, V domains shown)
VH: B1 VH with S30D, D31S, S49A, T58K, A106H
VL: B1 VL with S31T, V33L, S93D, S94T
notes: Group III
B18: 373_E10 (antibody, V domains shown)
VH: B1 VH
VL: B1 VL with V30L, S31T, L47V, A55H, S93E, S94T
notes: Group III

Tests used:
human ACVR2A = target: T1, human ACVR2A (human, UniProt P27037 20-135, limits assumed); experiment: ELISA
T1 construct: coated antigen of the initial ELISA; also called activin receptor, type II A
T1 sequence (P27037 20-135 limits assumed): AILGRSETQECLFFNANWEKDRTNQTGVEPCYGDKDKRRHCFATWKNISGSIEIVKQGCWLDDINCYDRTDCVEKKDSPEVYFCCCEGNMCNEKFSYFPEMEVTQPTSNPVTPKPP
In short: (§1)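 Monoclonal antibodies were first applied to human or mouse ACVR2A, alongside biotinylated goat anti-human kappa light chain (positive control) and human Fc (negative control); binding was then determined by ELISA.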

mouse ACVR2A = target: T2, mouse ACVR2A (mouse, UniProt P27038 20-135, limits assumed); experiment: ELISA
T2 construct: coated antigen of the initial ELISA
T2 sequence (P27038 20-135 limits assumed): as the sequence (P27037 20-135 limits assumed) above, with K20R, V73I counted along it
In short: as §1

[1] = target: T3, biotinylated goat anti-human kappa light chain; experiment: ELISA, positive control
T3 construct: positive control of the ELISA
In short: as §1
Further: test concentration or dose not given here.

Binder	optical density (human ACVR2A) [OD]	optical density (mouse ACVR2A) [OD]	optical density [1] [OD]
B1	3.21	3.54	3.49
B2	3.66	3.61	3.3
B3	3.65	3.63	3.08
B4	3.76	3.68	3.09
B5	3.25	3.27	3.23
B6	3.68	3.65	3.16
B7	3.69	3.7	3.07
B8	3.27	3.29	3.22
B9	3.04	3.29	3.6
B10	3.76	3.7	3.21
B11	3.67	3.33	3.15
B12	2.41	2.73	3.5
B13	3.66	3.62	3.11
B14	3.43	3.56	3.15
B15	3.59	3.31	3.09
B16	3.69	3.65	3.3
B17	3.3	3.48	3.02
B18	3.72	3.64	3.2
